Laboratory results published in paper PMC6549151 (2019).

Target: GPIIb/IIIa (Homo sapiens, UniProt P08514)
Experiment: spectrofluorometry titration

B1: RusPep (Rusvikunin-II peptide) (peptide)
chain: PESGRCRGHLRRIYYNLES
Kd: 1600 nM
